Results taken from patent publication US20220177567A1 (WASHINGTON UNIVERSITY, published 2022).

Experiments:
[1] = biological target: T1, human IL12Rβ1 (native, on human primary cells) (human, UniProt P42701 24-662); assay: summary statement; no affinity method or value given
T1 construct: whole, on cells; Endogenous receptor on human tonsil ILC3 and peripheral blood lymphocytes; also called CD212; interleukin 12 receptor subunit beta 1

[2] = biological target: T2, human FLAG-tagged IL12Rβ1 expressed on EL-4 cells (human, UniProt P42701 24-662); assay: flow cytometry, hybridoma supernatant followed by anti-mouse IgG PE
T2 construct: whole, on cells; EL-4 cell line transduced with a construct encoding human FLAG-tagged IL12Rβ1; also called EL-4-human IL-12Rβ1 cells; human IL12Rβ1; not shown: FLAG tag
Text: EL-4-human IL-12Rβ1 cell line: The EL-4 cell line was transduced with a construct encoding the human FLAG-tagged IL12Rβ1 Flow cytometry: EL-4-human IL-12Rβ1 cells were stained with supernatants from different hybridoma clones followed by anti-mouse IgG Pe. Staining was compared with that obtained with anti-FLAG Tag followed by anti-mouse IgG Pe. Hybridoma clones staining the same percentage of cells stained by anti-FLAG Tag were selected and further tested in primary cells (FIG. 2).

B1: 1G6 anti-IL12Rβ1 monoclonal antibody (antibody, V domains shown)
VH: RVQLQQSGAELAKPGASVRLSCMASGYTFTSYWMHWVKQRPGQGLEWIGYIDPNNGYTKYSQKFKDKATLTADKSSSTANMRLSSLTYEDSAVYYCVRGGEIYYFDYWGQGTTLTVSS
VL: DIQMTQSPSSLSASLGGKVTITCKASQDIYKYIAWYQHKPGKGPRLLIHYTSTLQPGIPSRFSGSGSGRDYSFSISDLEPEDIATYYCLQYDNILWTFGGGTKLEIKR
notes: Hybridoma monoclonal antibody, detected with anti-mouse IgG PE; Tested as hybridoma supernatant and also in biotinylated form; also called IG6; mab (1 G6)
B1: binds [1]; binds [2].
